Measured values as given in patent publication US20220242936A1 (CHANGCHUN GENESCIENCE PHARMACEUTICAL, published 2022).
Where no end group is shown, it is not given here.

Experiments:
[1] = molecular target: T1, biotinylated Aβ1-16 polypeptide (also: biotinylated (site not given here)); experiment: ELISA, biotinylated peptide on streptavidin plate
T1 construct: also called Aβ1-16 (N-terminal peptide fragment)
T1 peptide: DAEFRHDSGYEVHHQK
Protocol: (§1) Detection: After stopping the reaction, the microtiter plate was immediately placed into a microplate reader, the OD value was measured at 450 nm, and the original data was stored.
(§2) Data processing: The raw data were input into the software SoftMax Pro 6.2.1 for data processing.

[2] = molecular target: T2, biotinylated Aβ14-29 polypeptide (biotinylated (site not stated)); experiment: ELISA, biotinylated peptide on streptavidin plate
T2 construct: also called Aβ14-29 (middle peptide fragment)
Protocol: as §1, §2

[3] = molecular target: T1, biotinylated Aβ1-16 polypeptide; experiment: ELISA, hybridoma supernatant on biotinylated peptide captured by streptavidin
Protocol: as §1, §2

[4] = molecular target: T3, biotinylated Aβ1-42 polypeptide (human, biotinylated (site not stated)); experiment: as above
T3 construct: also called Full length Aβ1-42
T3 sequence (peptide, as listed by the source): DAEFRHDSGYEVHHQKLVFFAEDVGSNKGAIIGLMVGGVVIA
Protocol: as §1, §2

[5] = molecular target: T2, biotinylated Aβ14-29 polypeptide; experiment: as above
Protocol: as §1, §2

[6] = molecular target: Aβ1-42 polypeptide (human); experiment: cell-based or functional assay
[7] = molecular target: T4, Aβ1-42 polypeptide (human); experiment: SPR, Biacore T200, antibody captured on Protein A chip, human Aβ antigen as analyte
T4 construct: Synthetic peptide; also called Aβ1-42 monomer; Aβ monomer
T4 sequence (peptide, as listed by the source): as above
Protocol: Biacore-T200 detection was performed, ProteinA chip was used to capture candidate antibodies or positive antibodies, different concentrations of human Aβ antigen were used to flow through the chip, and the fitting analysis was performed based on the collected data. […] The detection conditions were: capture time: 30 s; antigen binding time: 120 s; dissociation time: 900 s; flow rate: 30 μl/min. And the regeneration conditions were: 20 mM NaOH solution, flow rate: 30 μl/min.

[8] = molecular target: T4, Aβ1-42 polypeptide; experiment: ELISA EC50 on Aβ42 monomer, 2 ml transient transfection; table note: '-' means no combination; expression 5.42 mg/L
[9] = molecular target: T4, Aβ1-42 polypeptide; experiment: ELISA EC50 on Aβ42 monomer, 2 ml transient transfection; table note: '-' means no combination; expression 3.88 mg/L
[10] = molecular target: T4, Aβ1-42 polypeptide; experiment: ELISA EC50 on Aβ42 monomer, 2 ml transient transfection; table note: '-' means no combination; expression 3.68 mg/L
[11] = molecular target: T4, Aβ1-42 polypeptide; experiment: ELISA EC50 on Aβ42 monomer, 2 ml transient transfection; table note: '-' means no combination; expression 3.96 mg/L
[12] = molecular target: T4, Aβ1-42 polypeptide; experiment: ELISA EC50 on Aβ42 monomer, 2 ml transient transfection; table note: '-' means no combination; expression 3.12 mg/L

Row | Binder | relative fluorescence intensity (ThT, Aβ polymerization; hIgG = 1.00) [6] | relative value of LDH release (SHSY5Y cells with Aβ; hIgG = 1.00) [6] | Kd [7] [nM] | koff [7] [s⁻¹] | kon [7] [M⁻¹ s⁻¹] | other results
1 | 066-4.26.14 (antibody, V domains shown, Murine hybridoma antibody) VH: EVKLVESGGGLVKPGGSLKLSCAASGFTFRSYAMSWVRQTPEKRLEWVASISTTSNTYYPDSVKGRFTTSRDNARNIVYLQMSSLRSDDTAMYYCGRGVITNQAWFAYWGQGTLVTVSA VL: DIVLTQSPATLSVTPGDSVSLSCRASQSISNNLHWYQQKSHESPRLLIKYASQSISGIPSRFSGSGSGTDFTLSVNNVGTEDFGMYFCQQSNSWPLTFGAGTKLELK | 0.7 relative to hIgG | 1.2 relative to hIgG |  |  |  | binding result [1]: no binding; binding result [2]: no binding; OD value at 450 nm [3]: 0.0602 OD; OD value at 450 nm [4]: 1.93 OD; OD value at 450 nm [5]: 0.0674 OD; relative fluorescence intensity (ThT, Aβ polymerization; PBS group = 1.0) [6]: 0.46 relative to PBS group; relative value of LDH release (SHSY5Y cells with Aβ; Vehicle group = 1.0) [6]: 1.2 relative to Vehicle group
2 | 066-4.26.14 mouse-human chimeric antibody (antibody, human IgG1, V domains shown) VH: EVKLVESGGGLVKPGGSLKLSCAASGFTFRSYAMSWVRQTPEKRLEWVASISTTSNTYYPDSVKGRFTTSRDNARNIVYLQMSSLRSDDTAMYYCGRGVITNQAWFAYWGQGTLVTVSA VL: DIVLTQSPATLSVTPGDSVSLSCRASQSISNNLHWYQQKSHESPRLLIKYASQSISGIPSRFSGSGSGTDFTLSVNNVGTEDFGMYFCQQSNSWPLTFGAGTKLELKR | 0.71 relative to hIgG | 1.32 relative to hIgG | 12.6 | 0.000333 | 26500 | 
3 | 066-4.26.14H2L2 (antibody, human IgG1, V domains shown, Humanized full-length antibody; human IgG1 heavy constant and human kappa light constant (vectors pGS003-hIgG1CH, pGS003-hIgKCL)) VH: EVQLVESGGGLVKPGGSLRLSCAASGFTFRSYAMSWVRQTPEKRLEWVASISTTSNTYYPDSVKGRFTTSRDNAKNSVYLQMSSLRAEDTAVYYCGRGVITNQAWFAYWGQGTTVTVSS VL: DIVLTQSPATLSVSPGERATLSCRASQSISNNLHWYQQKPGQAPRLLIKYASQSISGIPARFSGSGSGTDFTLTISSLQSEDFAVYFCQQSNSWPLTFGGGTKVEIKR | 0.62 relative to hIgG | 1.41 relative to hIgG | 22.5 | 0.000433 | 19200 | 
4 | 066-4.26.14H4L2 (antibody, human IgG1, V domains shown, Humanized full-length antibody; human IgG1 heavy constant and human kappa light constant (vectors pGS003-hIgG1CH, pGS003-hIgKCL)) VH: EVQLVESGGGLVQPGGSLRLSCAASGFTFRSYAMSWVRQAPGKGLEWVASISTTSNTYYPDSVKGRFTTSRDNAKNSVYLQMSSLRDEDTAMYYCGRGVITNQAWFAYWGQGILVTVSS VL: DIVLTQSPATLSVSPGERATLSCRASQSISNNLHWYQQKPGQAPRLLIKYASQSISGIPARFSGSGSGTDFTLTISSLQSEDFAVYFCQQSNSWPLTFGGGTKVEIKR | 0.7 relative to hIgG | 1.3 relative to hIgG | 36.3 | 0.000463 | 12800 | 
5 | 066-4.26.14H5L1 (antibody, human IgG1, V domains shown, Humanized full-length antibody; human IgG1 heavy constant and human kappa light constant (vectors pGS003-hIgG1CH, pGS003-hIgKCL)) VH: EVQLVESGGGLVQPGGSLRLSCVASGFTFRSYAMSWVRQAPGKGLEWVASISTTSNTYYPDSVKGRFTTSRDNSKNTVYLQMSSLRAEDTAVYYCGRGVITNQAWFAYWGQGTLVTVSS VL: DIVLTQSPATLSVSPGERVTLSCRASQSISNNLHWYQQKSGQAPRLLIKYASQSISGIPSRFSGSGSGTDFTLTISSLQSEDFAVYFCQQSNSWPLTFGGGTQVEIKR | 0.68 relative to hIgG | 1.37 relative to hIgG | 24.8 | 0.000469 | 18900 | 
6 | 066-4.26.14H5L2 (antibody, human IgG1, V domains shown, Humanized full-length antibody; human IgG1 heavy constant and human kappa light constant (vectors pGS003-hIgG1CH, pGS003-hIgKCL)) VH: EVQLVESGGGLVQPGGSLRLSCVASGFTFRSYAMSWVRQAPGKGLEWVASISTTSNTYYPDSVKGRFTTSRDNSKNTVYLQMSSLRAEDTAVYYCGRGVITNQAWFAYWGQGTLVTVSS VL: DIVLTQSPATLSVSPGERATLSCRASQSISNNLHWYQQKPGQAPRLLIKYASQSISGIPARFSGSGSGTDFTLTISSLQSEDFAVYFCQQSNSWPLTFGGGTKVEIKR | 0.67 relative to hIgG | 1.26 relative to hIgG | 20.8 | 0.000278 | 13400 | 
7 | 066-4.26.14H2L3 (antibody, human IgG1, V domains shown, Humanized full-length antibody; human IgG1 heavy constant and human kappa light constant (vectors pGS003-hIgG1CH, pGS003-hIgKCL)) VH: EVQLVESGGGLVKPGGSLRLSCAASGFTFRSYAMSWVRQTPEKRLEWVASISTTSNTYYPDSVKGRFTTSRDNAKNSVYLQMSSLRAEDTAVYYCGRGVITNQAWFAYWGQGTTVTVSS VL: DIVLTQSPDFQSVTPKEKVTISCRASQSISNNLHWYQQKPDQSPKLLIKYASQSISGIPSRFSGSGSGTDFTLTINSLEAEDAAAYFCQQSNSWPLTFGPGTKVEIKR | 0.67 relative to hIgG | 1.42 relative to hIgG | 25.8 | 0.000472 | 18300 | 
8 | 066-4.26.14H5L3 (antibody, human IgG1, V domains shown, Humanized full-length antibody; human IgG1 heavy constant and human kappa light constant (vectors pGS003-hIgG1CH, pGS003-hIgKCL)) VH: EVQLVESGGGLVQPGGSLRLSCVASGFTFRSYAMSWVRQAPGKGLEWVASISTTSNTYYPDSVKGRFTTSRDNSKNTVYLQMSSLRAEDTAVYYCGRGVITNQAWFAYWGQGTLVTVSS VL: DIVLTQSPDFQSVTPKEKVTISCRASQSISNNLHWYQQKPDQSPKLLIKYASQSISGIPSRFSGSGSGTDFTLTINSLEAEDAAAYFCQQSNSWPLTFGPGTKVEIKR | 0.78 relative to hIgG | 1.41 relative to hIgG | 32.5 | 0.00046 | 14200 | 
9 | 066-7.17.2 (antibody, V domains shown) VH: EVQLVESGGGLVKPGGSLKLSCAASGFTFSSYGMHWVRQAPEKGLEWVAMIWYDGTKKYYSDSVKGRFTISRDNAKNTLFLQMTSLRSEDTAMYYCARDRGIGTRHGPYFMDVWGQGTSVTVSS VL: DIQMNQSPSSLSASLGDTITITCHARHNVRSYLNWYQQKPGNIPKLLIYAASSQQRGVPSRFSGSGSGTGFTLTISSLQPEDIATYYCLQSFGTPLTFGGGTKLEIK |  |  |  |  |  | OD value at 450 nm [3]: 0.92 OD; OD value at 450 nm [4]: 1.08 OD; OD value at 450 nm [5]: 0.0612 OD
10 | 066-4.26.14H3L1 (antibody, human IgG1, kappa, V domains shown, Humanized full-length antibody; human IgG1 heavy constant and human kappa light constant (vectors pGS003-hIgG1CH, pGS003-hIgKCL)) VH: EVQLVQSGAEVKKPGESLKISCKGSGYSFRSYAMSWVRQMPGKGLEWVASISTTSNTYYPDSVKGRVTTSRDKSISTAYLQWSSLKASDTAMYYCGRGVITNQAWFAYWGQGTLVTVSS VL: DIVLTQSPATLSVSPGERVTLSCRASQSISNNLHWYQQKSGQAPRLLIKYASQSISGIPSRFSGSGSGTDFTLTISSLQSEDFAVYFCQQSNSWPLTFGGGTQVEIKR |  |  |  |  |  | binding result [8]: no binding
11 | 066-4.26.14H3L4 (antibody, human IgG1, kappa, V domains shown, Humanized full-length antibody; human IgG1 heavy constant and human kappa light constant (vectors pGS003-hIgG1CH, pGS003-hIgKCL)) VH: EVQLVQSGAEVKKPGESLKISCKGSGYSFRSYAMSWVRQMPGKGLEWVASISTTSNTYYPDSVKGRVTTSRDKSISTAYLQWSSLKASDTAMYYCGRGVITNQAWFAYWGQGTLVTVSS VL: EIVLTQSPGTLSLSPGERATLSCRASQSISNNLHWYQQKPGQAPRLLIKYASQSISGIPDRFSGSGSGTDFTLTISRLEPEDFAVYYCQQSNSWPLTFGGGTKVEIKR |  |  |  |  |  | binding result [9]: no binding
12 | 066-4.26.14H3L5 (antibody, human IgG1, kappa, V domains shown, Humanized full-length antibody; human IgG1 heavy constant and human kappa light constant (vectors pGS003-hIgG1CH, pGS003-hIgKCL)) VH: EVQLVQSGAEVKKPGESLKISCKGSGYSFRSYAMSWVRQMPGKGLEWVASISTTSNTYYPDSVKGRVTTSRDKSISTAYLQWSSLKASDTAMYYCGRGVITNQAWFAYWGQGTLVTVSS VL: EIVLTQSPDFQSVTPKEKVTITCRASQSISNNLHWYQQKPDQSPKLLIKYASQSISGVPSRFSGSGSGTDFTLTINSLEAEDAATYYCQQSNSWPLTFGQGTKVEIKR |  |  |  |  |  | binding result [10]: no binding
13 | 066-4.26.14H4L4 (antibody, human IgG1, V domains shown, Humanized full-length antibody; human IgG1 heavy constant and human kappa light constant (vectors pGS003-hIgG1CH, pGS003-hIgKCL)) VH: EVQLVESGGGLVQPGGSLRLSCAASGFTFRSYAMSWVRQAPGKGLEWVASISTTSNTYYPDSVKGRFTTSRDNAKNSVYLQMSSLRDEDTAMYYCGRGVITNQAWFAYWGQGILVTVSS VL: EIVLTQSPGTLSLSPGERATLSCRASQSISNNLHWYQQKPGQAPRLLIKYASQSISGIPDRFSGSGSGTDFTLTISRLEPEDFAVYYCQQSNSWPLTFGGGTKVEIKR |  |  |  |  |  | binding result [11]: no binding
14 | 066-4.26.14H5L4 (antibody, human IgG1, V domains shown, Humanized full-length antibody; human IgG1 heavy constant and human kappa light constant (vectors pGS003-hIgG1CH, pGS003-hIgKCL)) VH: EVQLVESGGGLVQPGGSLRLSCVASGFTFRSYAMSWVRQAPGKGLEWVASISTTSNTYYPDSVKGRFTTSRDNSKNTVYLQMSSLRAEDTAVYYCGRGVITNQAWFAYWGQGTLVTVSS VL: EIVLTQSPGTLSLSPGERATLSCRASQSISNNLHWYQQKPGQAPRLLIKYASQSISGIPDRFSGSGSGTDFTLTISRLEPEDFAVYYCQQSNSWPLTFGGGTKVEIKR |  |  |  |  |  | binding result [12]: no binding
